The chains are these.
B1: Tryptophan synthase alpha chain, P0A877 (parent)
chain: MERYESLFAQLKERKEGAFVPFVTLGDPGIEQSLKIIDTLIEAGADALELGIPFSDPLADGPTIQNATLRAFAAGVTPAQCFEMLALIRQKHPTIPIGLLMYANLVFNKGIDEFYAQCEKVGVDSVLVADVPVEESAPFRQAALRHNVAPIFICPPNADDDLLRQIASYGRGYTYLLSRAGVTGAENRAALPLNHLVAKLKEYNAAPPLQGFGISAPDQVKAAIDAGAAGAISGSAIVKIIEQHINEPEKMLAALKVFVQPMKAATRS

In this data set the parent is B1. The following applies: Escherichia coli (strain K12), 25 °C, GdnHCl, CD, reversible: yes, structure 1WQ5, whole UniProt chain shown.
Where [1] appears, read: pH 7, Potassium phosphate 0.01 M.

Take MERYESLFAQLKERKEGAFVPFVTLGDPGIEQSLKIIDTLIEAGADALYLGIPFSDPLADGPTIQNATLRAFAAGVTPAQCFEMLALIRQKHPTIPIGLLMYANLVFNKGIDEFYAQCEKVGVDSVLVADVPVEESAPFRQAALRHNVAPIFICPPNADDDLLRQIASYGRGYTYLLSRAGVTGAENRAALPLNHLVAKLKEYNAAPPLQGFGISAPDQVKAAIDAGAAGAISGSAIVKIIEQHINEPEKMLAALKVFVQPMKAATRS [E49Y]: the “ddG of mutation (higher = less stable)” value (pH 5.5, acetate 0.05 M) amounted to 0.4 kcal/mol; the “ddG of mutation (higher = less stable)” value under setting [1] is 0 kcal/mol; the “ddG of mutation (higher = less stable)” value (pH 9, Tris-HCl 0.025 M) was -1.9 kcal/mol. In addition, the unfolding free energy by setting is: (pH 5.5, acetate 0.05 M) 4.8 kcal/mol; under setting [1], 8.8 kcal/mol; (pH 9, Tris-HCl 0.025 M) 6.8 kcal/mol.
As for MERYESLFAQLKERKEGAFVPFVTLGDPGIEQSLKIIDTLIEAGADALSLGIPFSDPLADGPTIQNATLRAFAAGVTPAQCFEMLALIRQKHPTIPIGLLMYANLVFNKGIDEFYAQCEKVGVDSVLVADVPVEESAPFRQAALRHNVAPIFICPPNADDDLLRQIASYGRGYTYLLSRAGVTGAENRAALPLNHLVAKLKEYNAAPPLQGFGISAPDQVKAAIDAGAAGAISGSAIVKIIEQHINEPEKMLAALKVFVQPMKAATRS [E49S], the “ddG of mutation (higher = less stable)” value runs as follows: (pH 5.5, acetate 0.05 M) 1.3 kcal/mol; under setting [1], 1.4 kcal/mol; (pH 9, Tris-HCl 0.025 M) -3.1 kcal/mol. Besides, the unfolding free energy is 3.9 kcal/mol (pH 5.5, acetate 0.05 M); 7.4 kcal/mol under setting [1]; 8 kcal/mol (pH 9, Tris-HCl 0.025 M).
Regarding MERYESLFAQLKERKEGAFVPFVTLGDPGIEQSLKIIDTLIEAGADALQLGIPFSDPLADGPTIQNATLRAFAAGVTPAQCFEMLALIRQKHPTIPIGLLMYANLVFNKGIDEFYAQCEKVGVDSVLVADVPVEESAPFRQAALRHNVAPIFICPPNADDDLLRQIASYGRGYTYLLSRAGVTGAENRAALPLNHLVAKLKEYNAAPPLQGFGISAPDQVKAAIDAGAAGAISGSAIVKIIEQHINEPEKMLAALKVFVQPMKAATRS [E49Q], the “ddG of mutation (higher = less stable)” value (pH 5.5, acetate 0.05 M) amounted to 2.4 kcal/mol; the “ddG of mutation (higher = less stable)” value under setting [1] was found to be 2.5 kcal/mol; the “ddG of mutation (higher = less stable)” value (pH 9, Tris-HCl 0.025 M) was -3.6 kcal/mol. Further, the unfolding free energy is, setting by setting: (pH 5.5, acetate 0.05 M) 2.8 kcal/mol; under setting [1], 6.3 kcal/mol; (pH 9, Tris-HCl 0.025 M) 8.5 kcal/mol.
For MERYESLFAQLKERKEGAFVPFVTLGDPGIEQSLKIIDTLIEAGADALMLGIPFSDPLADGPTIQNATLRAFAAGVTPAQCFEMLALIRQKHPTIPIGLLMYANLVFNKGIDEFYAQCEKVGVDSVLVADVPVEESAPFRQAALRHNVAPIFICPPNADDDLLRQIASYGRGYTYLLSRAGVTGAENRAALPLNHLVAKLKEYNAAPPLQGFGISAPDQVKAAIDAGAAGAISGSAIVKIIEQHINEPEKMLAALKVFVQPMKAATRS [E49M], the “ddG of mutation (higher = less stable)” value reads like this: (pH 5.5, acetate 0.05 M) -0.7 kcal/mol; under setting [1], -4.5 kcal/mol; (pH 9, Tris-HCl 0.025 M) -3.5 kcal/mol. For the same variant, the unfolding free energy came out at 5.9 kcal/mol (pH 5.5, acetate 0.05 M); 13.3 kcal/mol under setting [1]; 8.4 kcal/mol (pH 9, Tris-HCl 0.025 M).
As for MERYESLFAQLKERKEGAFVPFVTLGDPGIEQSLKIIDTLIEAGADALVLGIPFSDPLADGPTIQNATLRAFAAGVTPAQCFEMLALIRQKHPTIPIGLLMYANLVFNKGIDEFYAQCEKVGVDSVLVADVPVEESAPFRQAALRHNVAPIFICPPNADDDLLRQIASYGRGYTYLLSRAGVTGAENRAALPLNHLVAKLKEYNAAPPLQGFGISAPDQVKAAIDAGAAGAISGSAIVKIIEQHINEPEKMLAALKVFVQPMKAATRS [E49V], the “ddG of mutation (higher = less stable)” value reads like this: (pH 5.5, acetate 0.05 M) -0.9 kcal/mol; under setting [1], -3.2 kcal/mol; (pH 9, Tris-HCl 0.025 M) -4.5 kcal/mol. For the same variant, the unfolding free energy is, setting by setting: (pH 5.5, acetate 0.05 M) 6.1 kcal/mol; under setting [1], 12 kcal/mol; (pH 9, Tris-HCl 0.025 M) 9.4 kcal/mol.

These data come from FireProtDB (doi:10.1016/0022-2836(82)90184-x).
